Biological target: human p21-activated kinase 1 (PAK1) (human) (UniProt Q13153)
Test: cell-based or functional assay

Chain of UniProt Q13153 (Q13153 whole entry R237L/F379S, form in doubt): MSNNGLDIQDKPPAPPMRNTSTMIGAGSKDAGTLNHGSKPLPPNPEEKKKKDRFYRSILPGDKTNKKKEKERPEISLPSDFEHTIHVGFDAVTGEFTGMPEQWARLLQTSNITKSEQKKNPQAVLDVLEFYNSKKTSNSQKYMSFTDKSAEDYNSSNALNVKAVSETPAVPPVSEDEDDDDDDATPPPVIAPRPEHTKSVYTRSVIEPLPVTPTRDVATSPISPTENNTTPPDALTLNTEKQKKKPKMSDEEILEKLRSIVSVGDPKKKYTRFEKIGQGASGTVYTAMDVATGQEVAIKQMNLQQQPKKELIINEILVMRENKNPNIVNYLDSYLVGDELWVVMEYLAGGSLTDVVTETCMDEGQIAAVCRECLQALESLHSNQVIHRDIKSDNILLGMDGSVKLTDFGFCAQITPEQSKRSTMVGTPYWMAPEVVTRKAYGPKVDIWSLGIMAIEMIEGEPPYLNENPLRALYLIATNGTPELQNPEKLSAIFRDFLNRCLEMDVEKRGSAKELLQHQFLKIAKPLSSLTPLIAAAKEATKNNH

inhibition of IL-1β induced expression of PGE2 in SW1353 cells (ELISA of supernatant): > 50%
inhibition of IL-1β-induced expression of MMP13 in SW1353 cells (ELISA of supernatant): 55%
inhibition of basal MMP13 expression in non-stimulated SW1353 cells (ELISA of supernatant): > 80%
Substance: HA-tagged PAK1 inhibitory domain (PAK1 residues 83 to 149) (from UniProt P35465 83-149)
